Paper doi:10.1101/2020.10.05.326918 (bioRxiv, 2020)
One block for each binder: values may come before it.

Experiments:
Assay in all cases: cryo-EM structure
MED28 = target: T1, MED28 (Mus musculus (endogenous in CH12 cells), UniProt Q920D3 1-178)
T1 sequence (looked up): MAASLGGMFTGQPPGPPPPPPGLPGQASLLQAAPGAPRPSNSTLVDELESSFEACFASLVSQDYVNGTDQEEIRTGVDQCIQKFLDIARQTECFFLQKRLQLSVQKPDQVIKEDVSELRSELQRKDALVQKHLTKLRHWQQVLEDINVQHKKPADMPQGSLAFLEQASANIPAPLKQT

MED30 = target: T2, MED30 (Mus musculus (endogenous in CH12 cells), UniProt Q9CQI9 1-178)
T2 sequence (looked up): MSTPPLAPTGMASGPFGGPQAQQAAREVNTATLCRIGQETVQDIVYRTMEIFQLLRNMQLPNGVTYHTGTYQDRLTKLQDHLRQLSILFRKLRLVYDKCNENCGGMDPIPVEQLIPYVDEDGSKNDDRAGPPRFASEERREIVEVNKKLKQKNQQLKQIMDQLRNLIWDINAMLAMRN

MED22 = target: T3, MED22 (Mus musculus (endogenous in CH12 cells), UniProt Q62276 1-200)
T3 sequence (looked up): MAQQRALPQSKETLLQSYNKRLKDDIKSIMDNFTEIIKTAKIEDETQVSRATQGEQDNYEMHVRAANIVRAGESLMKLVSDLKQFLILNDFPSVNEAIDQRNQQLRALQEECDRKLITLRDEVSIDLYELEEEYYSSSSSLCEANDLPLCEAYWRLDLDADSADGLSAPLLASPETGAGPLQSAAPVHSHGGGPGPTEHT

MED4 = target: T4, MED4 (Mus musculus (endogenous in CH12 cells), UniProt Q9CQA5 1-270)
T4 sequence (looked up): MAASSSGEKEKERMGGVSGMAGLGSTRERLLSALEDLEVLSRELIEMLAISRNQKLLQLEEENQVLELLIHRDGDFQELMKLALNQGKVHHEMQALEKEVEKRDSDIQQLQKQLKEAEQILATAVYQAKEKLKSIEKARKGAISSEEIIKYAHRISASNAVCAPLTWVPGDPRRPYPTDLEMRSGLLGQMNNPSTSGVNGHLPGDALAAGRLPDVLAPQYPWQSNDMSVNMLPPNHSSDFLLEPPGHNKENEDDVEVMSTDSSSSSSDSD

MED1 = MED1 (Mus musculus (endogenous in CH12 cells), UniProt Q925J9 1-1575)
MED1, sequence (Q925J9 whole entry): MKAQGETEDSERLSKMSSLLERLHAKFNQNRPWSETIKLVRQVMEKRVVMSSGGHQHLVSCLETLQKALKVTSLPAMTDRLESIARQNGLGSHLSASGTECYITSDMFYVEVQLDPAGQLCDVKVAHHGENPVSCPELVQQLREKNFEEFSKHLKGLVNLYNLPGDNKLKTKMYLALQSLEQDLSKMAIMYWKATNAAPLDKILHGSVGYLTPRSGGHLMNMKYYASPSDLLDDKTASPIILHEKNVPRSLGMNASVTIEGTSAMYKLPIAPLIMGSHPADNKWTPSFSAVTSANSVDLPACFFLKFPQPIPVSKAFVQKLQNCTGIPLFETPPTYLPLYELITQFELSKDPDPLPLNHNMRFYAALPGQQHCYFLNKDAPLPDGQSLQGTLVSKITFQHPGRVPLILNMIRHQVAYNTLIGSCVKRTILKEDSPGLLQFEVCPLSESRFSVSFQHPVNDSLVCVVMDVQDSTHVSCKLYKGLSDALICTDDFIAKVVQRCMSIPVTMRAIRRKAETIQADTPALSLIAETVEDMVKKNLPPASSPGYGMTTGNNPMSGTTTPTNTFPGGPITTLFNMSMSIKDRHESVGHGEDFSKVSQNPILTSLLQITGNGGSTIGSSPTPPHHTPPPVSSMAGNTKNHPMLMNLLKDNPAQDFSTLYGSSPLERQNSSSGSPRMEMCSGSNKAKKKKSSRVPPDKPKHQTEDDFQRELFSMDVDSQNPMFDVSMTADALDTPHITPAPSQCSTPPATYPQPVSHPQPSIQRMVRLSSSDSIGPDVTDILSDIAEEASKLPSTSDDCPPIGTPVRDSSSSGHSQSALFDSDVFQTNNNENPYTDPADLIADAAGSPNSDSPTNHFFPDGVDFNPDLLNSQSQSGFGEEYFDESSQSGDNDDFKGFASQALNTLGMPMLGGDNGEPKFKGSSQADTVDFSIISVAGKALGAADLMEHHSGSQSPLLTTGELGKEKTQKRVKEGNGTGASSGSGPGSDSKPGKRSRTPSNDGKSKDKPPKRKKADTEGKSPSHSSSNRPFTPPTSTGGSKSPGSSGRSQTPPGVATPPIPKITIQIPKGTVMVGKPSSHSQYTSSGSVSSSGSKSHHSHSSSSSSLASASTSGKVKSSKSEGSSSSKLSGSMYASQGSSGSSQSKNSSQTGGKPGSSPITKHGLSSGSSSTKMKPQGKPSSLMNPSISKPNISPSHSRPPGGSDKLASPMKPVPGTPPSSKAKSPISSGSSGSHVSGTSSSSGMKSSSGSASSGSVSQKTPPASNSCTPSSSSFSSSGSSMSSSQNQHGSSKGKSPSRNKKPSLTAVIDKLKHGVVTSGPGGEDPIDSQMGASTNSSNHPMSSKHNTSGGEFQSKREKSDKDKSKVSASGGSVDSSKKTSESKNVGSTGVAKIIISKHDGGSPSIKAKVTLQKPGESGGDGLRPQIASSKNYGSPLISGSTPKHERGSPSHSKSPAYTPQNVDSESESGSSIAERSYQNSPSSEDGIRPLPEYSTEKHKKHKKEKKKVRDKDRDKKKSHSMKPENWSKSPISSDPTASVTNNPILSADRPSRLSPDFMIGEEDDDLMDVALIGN

MED7 = target: T5, MED7 (Mus musculus (endogenous in CH12 cells), UniProt Q9CZB6 1-233)
T5 sequence (looked up): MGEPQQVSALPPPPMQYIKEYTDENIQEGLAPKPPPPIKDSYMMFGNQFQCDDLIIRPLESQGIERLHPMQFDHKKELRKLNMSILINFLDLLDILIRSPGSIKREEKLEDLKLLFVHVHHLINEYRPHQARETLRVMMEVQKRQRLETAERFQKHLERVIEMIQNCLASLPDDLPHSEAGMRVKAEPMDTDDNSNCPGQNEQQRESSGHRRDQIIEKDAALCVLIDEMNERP

MED20 = target: T6, MED20 (Mus musculus (endogenous in CH12 cells), UniProt Q9R0X0 1-212)
T6 sequence (looked up): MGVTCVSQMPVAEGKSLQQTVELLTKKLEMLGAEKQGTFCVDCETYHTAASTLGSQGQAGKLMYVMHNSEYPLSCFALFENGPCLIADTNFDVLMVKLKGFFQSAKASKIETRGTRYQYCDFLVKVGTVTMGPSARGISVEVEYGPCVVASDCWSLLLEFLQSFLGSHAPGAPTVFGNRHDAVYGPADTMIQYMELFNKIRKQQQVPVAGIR

MED17 = target: T7, MED17 (Mus musculus (endogenous in CH12 cells), UniProt Q8VCD5 1-649)
T7 sequence (looked up): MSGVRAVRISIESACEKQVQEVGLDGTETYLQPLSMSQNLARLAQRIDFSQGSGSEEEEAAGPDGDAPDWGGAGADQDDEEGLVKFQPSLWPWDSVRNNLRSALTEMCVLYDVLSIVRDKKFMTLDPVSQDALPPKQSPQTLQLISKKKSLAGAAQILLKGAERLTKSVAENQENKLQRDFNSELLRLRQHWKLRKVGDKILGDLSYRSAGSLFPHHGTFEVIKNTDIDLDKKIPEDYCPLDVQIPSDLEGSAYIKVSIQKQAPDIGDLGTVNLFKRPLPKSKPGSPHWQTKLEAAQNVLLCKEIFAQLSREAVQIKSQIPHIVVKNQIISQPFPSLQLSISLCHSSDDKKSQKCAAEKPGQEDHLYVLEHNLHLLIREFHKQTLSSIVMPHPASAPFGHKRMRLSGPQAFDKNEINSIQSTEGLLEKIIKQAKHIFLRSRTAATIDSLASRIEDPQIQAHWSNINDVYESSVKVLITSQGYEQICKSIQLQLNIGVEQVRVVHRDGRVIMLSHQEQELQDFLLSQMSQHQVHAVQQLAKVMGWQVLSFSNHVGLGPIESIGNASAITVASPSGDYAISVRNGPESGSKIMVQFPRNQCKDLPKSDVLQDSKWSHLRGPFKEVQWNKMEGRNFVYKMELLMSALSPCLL

MED27 = target: T8, MED27 (Mus musculus (endogenous in CH12 cells), UniProt Q9DB40 1-311)
T8 sequence (looked up): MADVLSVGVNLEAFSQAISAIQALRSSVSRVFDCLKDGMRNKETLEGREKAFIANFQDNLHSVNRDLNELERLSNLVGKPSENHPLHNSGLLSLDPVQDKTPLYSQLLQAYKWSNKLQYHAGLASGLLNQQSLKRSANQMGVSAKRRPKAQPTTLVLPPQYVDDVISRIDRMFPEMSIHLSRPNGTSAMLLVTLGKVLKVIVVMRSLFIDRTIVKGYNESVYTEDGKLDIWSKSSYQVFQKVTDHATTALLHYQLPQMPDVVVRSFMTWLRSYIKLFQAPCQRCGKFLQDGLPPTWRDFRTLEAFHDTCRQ

binding result (MED28): binds | binding result (MED30): binds | binding result (MED22): binds
B1: MED11 (natural protein, Mus musculus (endogenous in CH12 cells), UniProt Q9D8C6 1-117, looked up)
chain: MATYSLANERLRALEDIEREIGAILQNAGTAILELSKEKTNERLLDRQAAAFTTSVQHVEAELSAQIRYLTQVATGQPHEGSSYSSRKDCQMALKRVDYARLKISDVARTCEQMLEN

binding result (MED4): binds | binding result (MED1): binds
B2: MED9 (natural protein, Mus musculus (endogenous in CH12 cells), UniProt Q8VCS6 1-142, looked up)
chain: MASSGVAGGRQAEDTLQPPPELLPESKPPPPPQPLPVAALPPPAAPRPQSPAGAKEENYSFLPLVHNVIKCMDKDSPDLHQDLNALKTKFQELRKLIGTMPGIHVSPEQQQQQLHSLREQVRTKNELLQKYKSLCMFEIPKD

binding result (MED7): binds
B3: MED21 (natural protein, Mus musculus (endogenous in CH12 cells), UniProt Q9CQ39 1-144, looked up)
chain: MADRLTQLQDAVNSLADQFCNAIGVLQQCGPPASFSNIQTAINKDQPANPTEEYAQLFAALIARTAKDIDVLIDSLPSEESTAALQAASLYKLEEENHEAATCLEDVVYRGDMLLEKIQSALADIAQSQLKTRSVTHSHSLPDS

binding result (MED20): binds | binding result (MED17): binds | binding result (MED27): binds
B4: MED18 (natural protein, Mus musculus (endogenous in CH12 cells), UniProt Q9CZ82 1-208, looked up)
chain: MEAPPVTMMPVTGGTINMMEYLLQGSVLDHSLESLIHRLRGLCDNMEPETFLDHEMVFLLKGQQASPFVLRARRSMDRAGAPWHLRYLGQPEMGDKNRHALVRNCVDIATSENLTDFLMEMGFRMDHEFVAKGHLFRKGIMKVVVYKIFRILVPGNTDSTEALSLSYLVELSVVAPAGQDMVSDDMRNFAEQLKPLVHLEKIDPKRLM
